Measured values taken from a protein production outcome set (Wang et al. 2014).

experiment: label from the status in PepcDB records

For “MSSESRNLNRFFLYFAGILIFFIYITPCLATYNFEGTPEQDELIEITSGTVKGGLYVDGGEGLKKTPYVQEFNVPGDVVTWARVYVGVWGGTEEKTGTLDLTINGEEFESLDLEGKNDKGDDEDQNPAIYCTGHGVYWIAYDVGTNISTGPVTVEAQTEGDIDGRVYGIILAAVYEDKEGQSTKYWVEEGNINLHGKGWSETLASTHDEGYADFSGKVDTDKYNTANLAVVYLCGTPGLDDSLYFNEEQLSDGENSNDIANSKSYFDFKFFDVLDLLEEDDNELKFQRDEEDYVHPVLAALTLGTGEEGTSDLIVSGLTVPLLYAGKDNTIKASIKNIGKDSAYGFQAALYADGEIVSTAPVSSLSSGKSKTIEFNWKPAWDGEQALKVYVDYTNKKKETCEVNNWNSPFLAKVVDLTPPELEIDYPEDGARVDAGYLTVSGTIEDTNRNLTVDVNGQNALISGESWSASVPVVSGPNTIVVSAVDGENNTGRELIVVEGKESSTDSKESSQSDLTVSSKAENETEPVNQSILGSQTREYEKQAVLSPISEGIGFISAILFLRYRNRGKRL”, which protein production is on record?
Its protein production is “failed”.

For “MSSFVLDKEAFVRRVKRLYTEWRAPSIGHDDALRNLDCIMSIVGVEEDVMYSKSMALQLWLLGYELTDTISVFCSDAVYFLTSKKKIEFLKQTQNITEEGFPEINLLVRDRTDKDQGNFEKLIKALQNSKKGKRLGVFAKDAYPGEFSEAWKKSLTASKFEHVDISTIIAYLMCPKDESEINNIRKASLVSMDIFNKYLKDEIMDIIDSDRKVKHNKLSDGCEAAIGEKKYTSGLDPRLLDMAYPPIIQSGGAYSLKFSAVADKNPLHFGVIVCSLGARYKSYCSNISRTFLVNPTEAMQENYTFLVSV”, which protein production is on record?
Its protein production is “failed”.

Which protein production does the source give for “MSSIKIECVLPENCRCGESPVWEEVSNSLLFVDIPAKKVCRWDSFTKQVQRVTMDAPVSSVALRQSGGYVATIGTKFCALNWKEQSAVVLATVDNDKKNNRFNDGKVDPAGRYFAGTMAEETAPAVLERHQGALYSLFPDHHVKKYFDQVDISNGLDWSLDHKIFYYIDSLSYSVDAFDYDLQTGQISNRRSVYKLEKEEQIPDGMCIDAEGKLWVACYNGGRVIRLDPVTGKRLQTVKLPVDKTTSCCFGGKNYSEMYVTCARDGMDPEGLLRQPEAGGIFKITGLGVKGIAPYSYAG” here?
The protein production was “failed”.

For “MSSKEEILSILEAFASTERMGSFFLDNATADFLFIRPSGNPLDAKGFENMWSSGDLVLESAEITKVHKFELLGSNAAICVFTLGSKFTYKGTQNDDLPTVTSIFKKIDEKWKVAWMQRSSGQSDMTLWNE”, which protein production is on record?
Its protein production is “not failed”.

For “MSSKIDALKITVLSLSLCFSVSSLSATVNKTVKQKKNVIYILTDDQRYDEVGFLNPRIDTPNMDKLAAGGVYFKNAFVTTALCSPSRATILTGQYMHNHGVVDNNNPAKESSVYFPSYLQEVGYETSFFGKWHMGGHGDSPQPGFDHWLSFAGQGHYYPKKDKKGRTNKININGERVDQKGYITDELTDYAVDWLDKRDSDKPFFMYLSHKAVHSNFDPAPRHKDQYSDVAIEVPESQADTPENYAGKPMWVKNQRNSWHGVDFPYHSEMDVQEYKRQYHRALSAVDDSLGRVLKWLKDNNLENDTIVMLMGDNGFMFGEHGLIDKRNAYEESMRVPLLAYAPGYFKPGTVVDEMVANLDIAPTILEIAGAKKPAHFDGDSWLPLAKNKEVNQWRENFLYEYYWEFNYPSTPTTFALRTDNYKLIQYHGVWDTEELYDLKNDPKEMNNLINTPKHQPLIAQMRHDLFNLLVNKKGDNVIPYTEKYTPGAVYRERDRGETADFPDNWLKKEGDDGLRTFLRIKPIKDKKDDKKKSAKH”, which protein production is on record?
The protein production was “failed”.

Which protein production does the source give for “MSSLAQREERSSDGREPARAWAVTIVVLGLLLVIWPFVRTPPLPIAPAYAHLLGAWLGAVVALAAMARALRPHRRRGPPDA” here?
Its protein production is “failed”.

With “MSSLLGTFLYTLETTLPVFAMVFIGIGLRRIGWIDQGFIATASALVFKATLPTLVFLSIIRADLDTTLSISMLIFYFLATLASFALVWFWATKRVRQEDRGVYVQGAFRGNCGIVGLALAANLYGDYGLSAGGLLLGLVIVVYNSLSVIVLLAYQPGKTMSLSNTLRDIARNPLIIGVVLAIPFAAFEITLPGWVMTSGDYFASLTLPLALLCIGATVSLKSIRSDSGPAMGSSIWKMVSLPALCTLVAWLAGFEGRELGLMFLFFASPTAAASFVMVKALGGNDRMAANIIALTTLLASVTVTTGVFVLQSIGVA” as the sequence, how does the protein production read?
Its protein production is “failed”.

For “MSSLMMHCLIHVQELMNVKGIVVDELTGRSGPDHAKSLDPRTSLLRLITRPLGRVPPRESLDHFTRPPGRVSSPLPPSPSLDYILDVELQSLLHSALNQTLEHKEEKKTPAIHSTSHSTTLVEYSS”, which protein production is on record?
Its protein production is “failed”.

With “MSSLTIILIAAISAVLAFLIIFLLKSILFPKKRARIEKNLKSGKYGAAIKDAKSILSKNPRDSEARYLLGKAYLADKKVDLAFIEFKTLNKTAVFNNPATEIEFRTIIADLYLKFQQPDEALKEFMLLNKRDPKNPKPYFQAGQIYESKNMSDQAIAYFQKAIEVDSRFAEAYASLGLLLFKANQIPEAEKAIATALKLAPDNSETLYYHGKILKSKKNYAQALSALEKAARKQEIRSKCFFERGCCYLETNSLEKAEFEFTRAIKSSKQLSAPEVLYSRYLLADCYERQRNIDQAIEQWEAISAVNPKFRNTAQKLAEYSDLRTNDHMKEYLTLIKEEFFKMCRDITEQYFDYPVQALKETKMGCTILAVEKGSEQWLNTRKKPQLLIFSRDGHTITESFLRSVHEEMKKQAVVTSHIITSGAFSPDAIKFAENRPFNLIDRQKLERIVEKVKFTF” as the sequence, how does the protein production read?
The protein production was “failed”.

With “MSSLTSVELNFLVFRYLQESGFTHAAFTLGYEAGINKSNIDGNMVPPGALIKFVQKGLQYMEMEANLSNSEVDIDEDFSFFQPLDLISKDVKELQDMLREKKRKERDMEKERDRSKENDKGVEREHEGDRNRAKEKDRHEKQKEREREREKLEREKEREREKIEREKEREREKMEREIFEREKDRLKLEKEREIEREREREKIEREKSHEKQLGDADREMVIDQTDKEIAGDGSTGAEPMDIVMTPTSQTSHIPNSDVRILEGHTSEVCACAWSPSASLLASGSGDATARIWSIPEGSFKAVHTGRNINALILKHAKGKSNEKSKDVTTLDWNGEGTLLATGSCDGQARIWTLNGELISTLSKHKGPIFSLKWNKKGDYLLTGSVDRTAVVWDVKAEEWKQQFEFHSGPTLDVDWRNNVSFATSSTDSMIYLCKIGETRPAKTFTGHQGEVNCVKWDPTGSLLASCSDDSTAKIWNIKQSTFVHDLREHTKEIYTIRWSPTGPGTNNPNKQLTLASASFDSTVKLWDAELGKMLCSFNGHREPVYSLAFSPNGEYIASGSLDKSIHIWSIKEGKIVKTYTGNGGIFEVCWNKEGNKIAACFADNSVCVLDFRM” as the sequence, how does the protein production read?
The protein production was “failed”.

Which protein production does the source give for “MSSLVGLHYATVLPLAAYLLLAVVILLLAMGRDGAARKTFTASLLMIVLGWIPYIAAFLLLDYSLDEVAKNASDELSPYLRIGAAWSGGGGSLYLFSAFLSLAILLQMLLNKGLNRRAMAVFTLLVLTSMTSATLMGAFGTGPGERGGLGINPVLKNYWVVPHPTTTFLGYSFILVGSVALVLGYYRTGLPIQLLGLAFLTFGLVFGGMWSYETFGWGGYWAWDPVETSQLAVWLATVASIHMIGPLRSLNRGFAAYAASSVFLALYVTRSGVSPLHSFAAESFSAVLLLSASLVMLALSMLLFSEGVGETLEKWKSRLQDARWPPRIAEMNLSNILLTVGSVSIALSALIVYSSLLTPSVLKLVGLDTQPPSFEQGVRFYNRLLIPLALVSLYAVAGYYVSVRAGAKAAYSLFATLTVVLAIMGLATVKNTIIISPLSDTTTNLASATLLAAGSISGSVLLAMSLWMLYGMVKGKVAKSVHTLRIVLEKLVHATMIMILVSVAMSGSYAYNQGYSEEVLVPLGGEVSVMGVTISYEGYDYELHQGTVDLKNNLDPSSAILITAREALNMMDEDLSSTIREYRLASAESQSDRTLQTLLKASASNSEYRGVFTSTRGVADAAVVDVRTGENISNIQTAGETVLQLEDPTLEVTIDPKLDPETGRIEGGALSVVFYPERLVVYGIGSPVSLDPYSYLYVRFREPVEINLDDITVNMEEVVVYSTGGSSIEGVVSGQSVLFEGVAIRVVSGELSFGSMNIELPYQLDRGEFFYFMVYKGQAEVLDDILSSSISDLLESGIAGLAAGEDMDDFNVPRRAPAGVSLRLFMEVNGEPVEADLRFEANGEAIGIHGLVIDTIILRRGLTNVYITVQAPLVSGHFGEYHELMVYYLNEAMNTLRPEEYLALASVMAAGYNIASIVSSPSKERAALEVERATIDLYLLSEKLDEKRSSAAEGIVVSVKIVPGVPLLWLTGVLAGVLLLAMASIHFYLGFRQGRLIDT” here?
The protein production was “failed”.

With “MSSMVEVEHWNTLRLRIYIGENDKWEGRPLYKVIVEKLREMGIAGATVYRGIYGFGKKSRVHSSDVIRLSTDLPIIVEVVDRGHNIEKVVNVIKPMIKDGMITVEPTIVLWVGTQEEIKKFEEDAIAERQ” as the sequence, how does the protein production read?
Its protein production is “not failed”.
